Data from US20170295781A1 (AGROSAVFE N V, published 2017).
Positions count from the first letter of the chain named.

Key:
[1] = biological target: potato lectin (Sigma) (potato) (UniProt Q9S8M0); test: ELISA-like assay, Uvitex OB microcapsules on potato lectin-coated wells, surface coverage 4%
[2] = biological target: potato lectin (Sigma) (potato) (UniProt Q9S8M0); test: ELISA-like assay, Uvitex OB microcapsules on potato lectin-coated wells, surface coverage 20%
[3] = biological target: potato lectin (Sigma) (potato) (UniProt Q9S8M0); test: ELISA-like assay, Uvitex OB microcapsules on potato lectin-coated wells, surface coverage 100%
[4] = biological target: potato lectin (Sigma) (potato) (UniProt Q9S8M0); test: ELISA-like assay, lambda-cyhalothrin microcapsules on potato lectin-coated wells, surface coverage 4%
[5] = biological target: potato lectin (Sigma) (potato) (UniProt Q9S8M0); test: ELISA-like assay, lambda-cyhalothrin microcapsules on potato lectin-coated wells, surface coverage 20%
[6] = biological target: potato lectin (Sigma) (potato) (UniProt Q9S8M0); test: ELISA-like assay, lambda-cyhalothrin microcapsules on potato lectin-coated wells, surface coverage 100%
[7] = biological target: potato lectin (Sigma) (potato) (UniProt Q9S8M0); test: ELISA-like assay, Uvitex microcapsules on wells coated with 5 ug/well potato lectin, surface coverage 4%
[8] = biological target: potato lectin (Sigma) (potato) (UniProt Q9S8M0); test: ELISA-like assay, Uvitex microcapsules on wells coated with 5 ug/well potato lectin, surface coverage 20%
[9] = biological target: potato lectin (Sigma) (potato) (UniProt Q9S8M0); test: ELISA-like assay, Uvitex microcapsules on wells coated with 5 ug/well potato lectin, surface coverage 100%
[10] = biological target: T1, potato lectin (Sigma) (potato, UniProt Q9S8M0 23-323); test: ELISA, potato lectin coated at 100 ug/ml, VHH at 3 ug/ml, anti-histidine detection
T1 construct: Bought glycoprotein coated on ELISA plates
T1 sequence (looked up): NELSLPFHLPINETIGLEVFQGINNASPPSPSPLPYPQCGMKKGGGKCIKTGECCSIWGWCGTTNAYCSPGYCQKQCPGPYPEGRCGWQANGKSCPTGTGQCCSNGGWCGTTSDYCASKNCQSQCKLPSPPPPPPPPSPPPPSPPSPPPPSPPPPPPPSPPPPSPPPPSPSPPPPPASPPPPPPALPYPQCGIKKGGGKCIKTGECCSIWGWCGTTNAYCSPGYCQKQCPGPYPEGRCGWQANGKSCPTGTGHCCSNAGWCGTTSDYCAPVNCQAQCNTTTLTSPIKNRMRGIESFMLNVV
Method: ELISA plates (Maxisorp, Nunc) coated with 100 μl per well 100 μg/ml potato lectin (Sigma) in PBS were coated at 4° C. overnight and coating was continued at room temperature for 1 hour on the next day. Plates were washed three times with PBS/0.05%-TWEEN®-20 and blocked with 5% skimmed milk in PBS for 1 hour. VHH (3 μg/ml) were transferred to the potato lectin-coated plates and VHH antibody fragments were allowed to bind for 1 hour at room temperature. Bound VHH were detected with sequential incubations with monoclonal mouse anti-histidine antibodies (Abd Serotec) and rabbit anti-mouse IgG whole molecule antibodies conjugated with alkaline phosphatase (RaM/AP) (Sigma) in 1% MPBS/0.05%-TWEEN®-20. Unbound antibodies were removed by washing three times with PBS/0.05%-TWEEN®-20 after each antibody incubation. The plates were washed an additional two times with PBS and 100 μl pNPP disodium hexahydrate substrate (Sigma) was added to each well and the absorbance at 405 nm was measured (see Table 2).

[11] = biological target: T1, potato lectin (Sigma); test: ELISA-like assay, Uvitex microcapsules on potato lectin-coated wells, 25-fold less microcapsules
Method: An ELISA-like assay was performed using high bind half area microplates (Greiner Bio-One) coated with 5 μg/well potato lectin. Control wells included blank wells or wells coated with unrelated antigens. Plates were washed three times with PBS with 0.05%-TWEEN®-20 and blocked with 5% skimmed milk in PBS for 1 to 2 hours. VHH-coupled Uvitex-containing microcapsules were diluted to appropriate densities in 1% skimmed milk in PBS with 0.05%-TWEEN®-20. Five-fold serial dilution series were prepared and allowed to bind to the surface to compare binding of microcapsules coupled with monovalent or bivalent VHH. Microcapsules were added to the antigen-coated or control wells and allowed to bind for 1 hour. Unbound microcapsules were removed by washing five times with PBS with 0.05%-TWEEN®-20. The bottoms of ELISA plate wells were analyzed for bound microcapsules on a macrozoom microscope system (Nikon). Microcapsules were counted using Volocity image analysis software (Perkin Elmer). A DAPI filter was used to visualize Uvitex microcapsules. […] The surface area of microcapsules with coupled bivalent VHH was 15-fold above the surface area of blank microcapsules applied at this microcapsule density while the surface area of microcapsules with monovalent VHH was only six-fold above the surface area of blank microcapsules applied at this microcapsule density. […]

[12] = biological target: unrelated antigen; test: ELISA-like assay, Uvitex microcapsules on wells coated with unrelated antigen, surface coverage 4%
[13] = biological target: unrelated antigen; test: ELISA-like assay, Uvitex microcapsules on wells coated with unrelated antigen, surface coverage 20%
[14] = biological target: unrelated antigen; test: ELISA-like assay, Uvitex microcapsules on wells coated with unrelated antigen, surface coverage 100%

Work on “unrelated control VHH coupled to microcapsules” yielded an area of bound microcapsules (area (unit not given)) [1] of 7.53, an area of bound microcapsules (area (unit not given)) [2] of 35.4 and an area of bound microcapsules (area (unit not given)) [3] of 16.7. For the same molecule, the counts of bound microcapsules [4] was 348 counts, the counts of bound microcapsules [5] was 709 counts and the counts of bound microcapsules [6] was 828 counts. It also gave a surface area of bound microcapsules (area (unit not given)) [7] of 19.2, a surface area of bound microcapsules (area (unit not given)) [8] of 43.5 and a surface area of bound microcapsules (area (unit not given)) [9] of 142.

B1: VHH 3E6 (VHH)
VHH: QVQLQESGGGLVQPGGTLSLSCAASGFNVRWYGMGWFRQAPGKEREGVACISALQETTAYADSVKGRFTLSRDNPKNTLSLQMNNLQPEDTGVYYCATTDCDDSSRMTYTSYLGQGTQVTVSS
notes: Purified hexahistidine-tagged VHH from E. coli periplasm; not shown: hexahistidine tag
For B1, the “absorbance at 405 nm” value [10] was 4 A405.

B2: VHH 3E6 coupled to polyurea microcapsules (VHH)
VHH: B1 VHH
modifications: coupled by carbodiimide (EDC) chemistry to carboxylic acid groups on the microcapsule shell
notes: also called Monovalent VHH 3E6; monovalent VHH; not shown: hexahistidine tag
In the case of B2, the “fold surface area above blank microcapsules” value [11] is reported as 6 fold.

B3: VHH 5C4 (VHH)
VHH: QVQLQESGGGLVQPGGSLRLSCAASGFSLRYFGIGWFRQVAGKEREPVSCSNVRDGNTYYADSVKGRFTISRDNVRNTLYLQMNSLKPEDTAVYSCATTDCEATTWGTYRGYFGQGTQVTVSS
notes: not shown: hexahistidine tag
With B3 the “absorbance at 405 nm” value [10] was 4 A405.

B4: VHH 5G5 (VHH)
VHH: B3 VHH with V40A, P47G, V48I, T78M, S85N, E89D
notes: not shown: hexahistidine tag
For B4, the “absorbance at 405 nm” value [10] was 4 A405.

B5: Bivalent VHH 3E6 coupled to polyurea microcapsules (VHH)
chain: QVQLQESGGGLVQPGGTLSLSCAASGFNVRWYGMGWFRQAPGKEREGVACISALQETTAYADSVKGRFTLSRDNPKNTLSLQMNNLQPEDTGVYYCATTDCDDSSRMTYTSYLGQGTQVTVSSGGGGSGGGSQVQLQESGGGLVQPGGTLSLSCAASGFNVRWYGMGWFRQAPGKEREGVACISALQETTAYADSVKGRFTLSRDNPKNTLSLQMNNLQPEDTGVYYCATTDCDDSSRMTYTSYLGQGTQVTVSSAAAEQKLISEEDLNGAAHHHHHH
modifications: coupled by carbodiimide chemistry to the microcapsule shell
Molecule B5 has a surface area of bound microcapsules (area (unit not given)) [12] of 15, a surface area of bound microcapsules (area (unit not given)) [13] of 22.1 and a surface area of bound microcapsules (area (unit not given)) [14] of 45.7. The “fold surface area above blank microcapsules” value [11] was 15 fold.

B6: VHH 5D4 (VHH)
VHH: QVQLQESGGGLVQPGGSLRLSCAASGFDMRRFGIGWFRQVAGKEREGVSCSNVHDGTTYYTNDVKGRFTIVRDNTKNMLYLQMNKLRPEDTAVYSCATTDCEATAWGTYRGYFGQGTQVTVSS
notes: not shown: hexahistidine tag
B6 was tested, and the “absorbance at 405 nm” value [10] was 4 A405.

B7: VHH 7D2 (VHH)
VHH: QVQLQESGGGLVQPGRSLKVACAAAGFSLRYYGIGWFRQAPGKEREAVSCTSANDGSTYYRDSVRGRFTISRDDGKNTVYLQMNRLKPEDTAVYYCATTDCDATSWGTWINYYGQGTQVTVSS
notes: not shown: hexahistidine tag
In the case of B7, the “absorbance at 405 nm” value [10] is reported as 4 A405.
